Test results: patent US20060153838A1

Key:
[1] = molecular target: soluble human FcγRIIb (biotinylated) (human) (UniProt P31994); experiment: ELISA screen in a manner similar to the anti-PSA library, anti-TNFα parent IgG, biotinylated soluble FcγR, normalized signal
[2] = molecular target: soluble human FcγRIII (biotinylated) (human) (UniProt P08637); experiment: as above
[3] = molecular target: soluble human FcγRIIb (biotinylated) (human) (UniProt P31994); experiment: ELISA: IgG captured on PSA-coated plate, biotinylated soluble FcγR, NeutrAvidin-AP, A560 background-subtracted and normalized
[4] = molecular target: soluble human FcγRIII (biotinylated) (human) (UniProt P08637); experiment: as above
[5] = molecular target: soluble human FcγRIIa (biotinylated) (human) (UniProt P12318); experiment: as above
UniProt P12318, sequence (P12318 34-217): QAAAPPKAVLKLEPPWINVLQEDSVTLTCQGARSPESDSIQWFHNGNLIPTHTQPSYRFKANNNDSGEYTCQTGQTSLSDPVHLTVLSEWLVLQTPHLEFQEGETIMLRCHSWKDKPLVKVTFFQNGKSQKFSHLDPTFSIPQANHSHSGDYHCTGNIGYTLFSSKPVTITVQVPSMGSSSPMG

UniProt P31994, sequence (P31994 43-217): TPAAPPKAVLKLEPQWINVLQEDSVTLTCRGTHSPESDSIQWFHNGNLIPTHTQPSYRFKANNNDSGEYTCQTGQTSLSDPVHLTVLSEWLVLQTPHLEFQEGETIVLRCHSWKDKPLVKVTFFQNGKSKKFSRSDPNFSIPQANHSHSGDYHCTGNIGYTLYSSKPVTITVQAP
UniProt P08637, sequence (P08637 17-208): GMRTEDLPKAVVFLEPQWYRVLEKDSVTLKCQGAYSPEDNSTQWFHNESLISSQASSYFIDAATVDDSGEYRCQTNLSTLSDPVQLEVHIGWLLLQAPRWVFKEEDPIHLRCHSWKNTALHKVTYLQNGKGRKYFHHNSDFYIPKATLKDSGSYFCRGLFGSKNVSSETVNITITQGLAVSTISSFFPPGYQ

Row | Substance | relative FcγRIIb (relative to parental antibody = 1.0) [1] | relative FcγRIII (relative to parental antibody = 1.0) [2] | relative FcγRIIb (relative to parental antibody = 1.0) [3] | relative FcγRIII (relative to parental antibody = 1.0) [4] | relative FcγRIIa (relative to parental antibody = 1.0) [5]
1 | anti-TNFα IgG Fc variant D280H (antibody) | 0.92 | 1.24 |  |  | 
2 | anti-PSA IgG Fc variant Y300I (antibody) |  |  | 1.26 | 1.38 | 
3 | anti-PSA IgG Fc variant E294N (antibody) |  |  | 0.672 | 1.14 | 
4 | anti-PSA IgG Fc variant Y300L (antibody) |  |  | 1.36 | 1.81 | 
5 | anti-PSA IgG Fc variant S298V (antibody) |  |  | 0.592 | 2.8 | 
6 | anti-TNFα IgG Fc variant D280Y (antibody) | 2.14 | 1.23 |  |  | 
7 | anti-PSA IgG Fc variant S298N (antibody) |  |  | 0.363 | 1.42 | 
8 | anti-TNFα IgG Fc variant D280Q (antibody) | 0.87 | 1.19 |  |  | 
9 | anti-PSA IgG Fc variant Q295K (antibody) |  |  | 0.892 | 1.47 | 
10 | anti-PSA IgG Fc variant Q295L (antibody) |  |  | 1.34 | 1.06 | 1.44
11 | anti-TNFα IgG Fc variant K290S (antibody) | 1.4 | 1.23 |  |  | 
12 | anti-PSA IgG Fc variant S298D (antibody) |  |  | 0.188 | 2.31 | 
13 | anti-TNFα IgG Fc variant K290G (antibody) | 1.46 | 1.64 |  |  | 
